# Molecular target: RIFIN PF3D7_1373400 V2 domain, soluble recombinant (P. falciparum 3D7, UniProt C0H5N9)
# Test: cryo-EM structure
binder,measurement,value
"MDB1 Fab (LILRB1 D3D4-containing antibody Fab) (Fab, V domains shown) VH: QITLKESGPTLVERTQTLTLTCTFSGFSLTTDGLGVGWIRQPPGKALEWLALIYYDDVRRYRPSLKSRLTITKDTSKNRVVLTVTDMDPVDAGTYFCVHASLFNLGSRNVYFRYWGQGTLVSVSS VL: SYDLTQPPSVSVSPGQTARITCSGDSLARQFASWYQQKPGQSPVLLIYKNIERLSAIPERFSGSTSGTSVTLTISGVQAEDEADYFCQSADDSGSYSLFGTGTRVSVL",binding result,binds
